Reference: paper PMC3035870 (Molecular microbiology, 2009)
Like-named read-outs stand apart in the source and are kept apart here.

B1: Bacillus subtilis τ A550V mutant (natural protein, B. subtilis (strain 168), UniProt P09122 1-563, looked up)
chain: MSYQALYRVFRPQRFEDVVGQEHITKTLQNALLQKKFSHAYLFSGPRGTGKTSAAKIFAKAVNCEHAPVDEPCNECAACKGITNGSISDVIEIDAASNNGVDEIRDIRDKVKFAPSAVTYKVYIIDEVHMLSIGAFNALLKTLEEPPEHCIFILATTEPHKIPLTIISRCQRFDFKRITSQAIVGRMNKIVDAEQLQVEEGSLEIIASAADGGMRDALSLLDQAISFSGDILKVEDALLITGAVSQLYIGKLAKSLHDKNVSDALETLNELLQQGKDPAKLIEDMIFYFRDMLLYKTAPGLEGVLEKVKVDETFRELSEQIPAQALYEMIDILNKSHQEMKWTNHPRIFFEVAVVKICQTSHQSAADLPEVDMLMKKIQQLEQEVERLKTTGIKAAAESPKKEAPRVPKGGKSNYKAPVGRIHEILKEATRPDLDLLRNSWGKLLAHLKQQNKVSHAALLNDSEPVAAGSAAFVLKFKYEIHCKMVAEDNNGVRTNLEQILESMLGKRMDLIGVPEAQWGKIREEFLEDHQQENEGSNEPAEEDPLIAEVKKLVGADLIEIKD
B2: Δτ18, B. subtilis τ lacking the last 18 C-terminal residues (domain or fragment, B. subtilis (strain 168), UniProt P09122 1-545, looked up)
chain: MSYQALYRVFRPQRFEDVVGQEHITKTLQNALLQKKFSHAYLFSGPRGTGKTSAAKIFAKAVNCEHAPVDEPCNECAACKGITNGSISDVIEIDAASNNGVDEIRDIRDKVKFAPSAVTYKVYIIDEVHMLSIGAFNALLKTLEEPPEHCIFILATTEPHKIPLTIISRCQRFDFKRITSQAIVGRMNKIVDAEQLQVEEGSLEIIASAADGGMRDALSLLDQAISFSGDILKVEDALLITGAVSQLYIGKLAKSLHDKNVSDALETLNELLQQGKDPAKLIEDMIFYFRDMLLYKTAPGLEGVLEKVKVDETFRELSEQIPAQALYEMIDILNKSHQEMKWTNHPRIFFEVAVVKICQTSHQSAADLPEVDMLMKKIQQLEQEVERLKTTGIKAAAESPKKEAPRVPKGGKSNYKAPVGRIHEILKEATRPDLDLLRNSWGKLLAHLKQQNKVSHAALLNDSEPVAAGSAAFVLKFKYEIHCKMVAEDNNGVRTNLEQILESMLGKRMDLIGVPEAQWGKIREEFLEDHQQENEGSNEPAEEDP

Columns and labels:
Test in all cases: SEC
SEC [1] = molecular target: the molecule itself
SEC [2] = molecular target: the molecule itself; remark: listed apart in the source
[3] = molecular target: B1
[4] = molecular target: B2

Binder | binding result (SEC [1]) | binding result (SEC [2]) | binding result [3] | binding result [4]
Bacillus subtilis τ subunit of the clamp-loader (DnaX) (natural protein, B. subtilis (strain 168), UniProt P09122 1-563, looked up) MSYQALYRVFRPQRFEDVVGQEHITKTLQNALLQKKFSHAYLFSGPRGTGKTSAAKIFAKAVNCEHAPVDEPCNECAACKGITNGSISDVIEIDAASNNGVDEIRDIRDKVKFAPSAVTYKVYIIDEVHMLSIGAFNALLKTLEEPPEHCIFILATTEPHKIPLTIISRCQRFDFKRITSQAIVGRMNKIVDAEQLQVEEGSLEIIASAADGGMRDALSLLDQAISFSGDILKVEDALLITGAVSQLYIGKLAKSLHDKNVSDALETLNELLQQGKDPAKLIEDMIFYFRDMLLYKTAPGLEGVLEKVKVDETFRELSEQIPAQALYEMIDILNKSHQEMKWTNHPRIFFEVAVVKICQTSHQSAADLPEVDMLMKKIQQLEQEVERLKTTGIKAAAESPKKEAPRVPKGGKSNYKAPVGRIHEILKEATRPDLDLLRNSWGKLLAHLKQQNKVSHAALLNDSEPVAAGSAAFVLKFKYEIHCKMVAEDNNGVRTNLEQILESMLGKRMDLIGVPEAQWGKIREEFLEDHQQENEGSNEPAEEDPLIAEAKKLVGADLIEIKD | binds | – | – | –
B1 | – | binds | – | –
Geobacillus stearothermophilus replicative helicase DnaB (enzyme, G. stearothermophilus (strain NCA1503), UniProt Q9X4C9 1-454, looked up) MSELFSERIPPQSIEAEQAVLGAVFLDPAALVPASEILIPEDFYRAAHQKIFHAMLRVADRGEPVDLVTVTAELAASEQLEEIGGVSYLSELADAVPTAANVEYYARIVEEKSVLRRLIRTATSIAQDGYTREDEIDVLLDEADRKIMEVSQRKHSGAFKNIKDILVQTYDNIEMLHNRDGEITGIPTGFTELDRMTSGFQRSDLIIVAARPSVGKTAFALNIAQNVATKTNENVAIFSLEMSAQQLVMRMLCAEGNINAQNLRTGKLTPEDWGKLTMAMGSLSNAGIYIDDTPSIRVSDIRAKCRRLKQESGLGMIVIDYLQLIQGSGRSKENRQQEVSEISRSLKALARELEVPVIALSQLSRSVEQRQDKRPMMSDIRESGSIEQDADIVAFLYRDDYYNKDSENKNIIEIIIAKQRNGPVGTVQLAFIKEYNKFVNLERRFDEAQIPPGA | binds | – | binds | binds
B2 | binds | – | – | –
